Experimental data: patent publication US20160136236A1 (MODERNA THERAPEUTICS, published 2016)

Target: T1, BODIPY-labeled LDL (low density lipoprotein) (UniProt P04114 28-4563, BODIPY fluorescent label, site not stated)
T1 construct: A lipoprotein particle (protein and lipid), not a pure protein; also called BODIPY-LDL; LDL-BODIPY
Test: FACS; increasing amounts of BODIPY-LDL for 1 h at 37 C on HEK293 cells transfected with LDLR mRNA

Kd: ~0.06 µg/mL
B1: wild type (WT) human low density lipoprotein receptor (LDLR) (receptor)
chain: not shown
notes: also called LDL receptor; wild-type LDLR
